Source: patent publication US20250368745A1 (published 2025)
Where “and” joins values, the source holds several entries; their conditions need not be identical. Equal entries are not always repeated.

T1: human IL-18BP (human, UniProt O95998 31-194)
T1 construct: UniProt printed as 095998; also called hIL-18BP
T1 sequence: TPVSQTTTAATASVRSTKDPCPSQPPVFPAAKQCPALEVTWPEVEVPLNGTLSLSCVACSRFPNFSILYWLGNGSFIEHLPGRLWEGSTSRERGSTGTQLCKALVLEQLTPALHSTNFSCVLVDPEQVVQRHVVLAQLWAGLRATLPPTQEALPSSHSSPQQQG

B1: SA302a HC-D33E (antibody, V domains shown)
VH: QVQLQESGPGLVKPSQTLSLTCTVSGYSITSEYNAHWIRQPPGKGLEWIGYIHYSGSTNYNPSLKSRVTISRDTSKNQFSLKLSSVTAADTAVYYCARNYGSIYVNYFDYWGQGTLVTVSS
VL: EIVLTQSPATLSLSPGERATLSCSASSSVSYMYWYQQKPGQAPRPLIYRTSNLASGIPARFSGSGSGTDFTLTISSLEPEDFAVYYCQQYHSYPTFGGGTKVEIK
notes: IgG1 kappa
B2: SA302a HC-T30E (antibody, V domains shown)
VH: QVQLQESGPGLVKPSQTLSLTCTVSGYSIESDYNAHWIRQPPGKGLEWIGYIHYSGSTNYNPSLKSRVTISRDTSKNQFSLKLSSVTAADTAVYYCARNYGSIYVNYFDYWGQGTLVTVSS
VL: EIVLTQSPATLSLSPGERATLSCSASSSVSYMYWYQQKPGQAPRPLIYRTSNLASGIPARFSGSGSGTDFTLTISSLEPEDFAVYYCQQYHSYPTFGGGTKVEIK
B3: SA302a HC-T30V (antibody, V domains shown)
VH: QVQLQESGPGLVKPSQTLSLTCTVSGYSIVSDYNAHWIRQPPGKGLEWIGYIHYSGSTNYNPSLKSRVTISRDTSKNQFSLKLSSVTAADTAVYYCARNYGSIYVNYFDYWGQGTLVTVSS
VL: EIVLTQSPATLSLSPGERATLSCSASSSVSYMYWYQQKPGQAPRPLIYRTSNLASGIPARFSGSGSGTDFTLTISSLEPEDFAVYYCQQYHSYPTFGGGTKVEIK
B4: SA302a HC-T30N (antibody, V domains shown)
VH: QVQLQESGPGLVKPSQTLSLTCTVSGYSINSDYNAHWIRQPPGKGLEWIGYIHYSGSTNYNPSLKSRVTISRDTSKNQFSLKLSSVTAADTAVYYCARNYGSIYVNYFDYWGQGTLVTVSS
VL: EIVLTQSPATLSLSPGERATLSCSASSSVSYMYWYQQKPGQAPRPLIYRTSNLASGIPARFSGSGSGTDFTLTISSLEPEDFAVYYCQQYHSYPTFGGGTKVEIK
B5: SA302a HC-T30Q (antibody, V domains shown)
VH: QVQLQESGPGLVKPSQTLSLTCTVSGYSIQSDYNAHWIRQPPGKGLEWIGYIHYSGSTNYNPSLKSRVTISRDTSKNQFSLKLSSVTAADTAVYYCARNYGSIYVNYFDYWGQGTLVTVSS
VL: EIVLTQSPATLSLSPGERATLSCSASSSVSYMYWYQQKPGQAPRPLIYRTSNLASGIPARFSGSGSGTDFTLTISSLEPEDFAVYYCQQYHSYPTFGGGTKVEIK
B6: SA302a HC-T30I (antibody, V domains shown)
VH: QVQLQESGPGLVKPSQTLSLTCTVSGYSIISDYNAHWIRQPPGKGLEWIGYIHYSGSTNYNPSLKSRVTISRDTSKNQFSLKLSSVTAADTAVYYCARNYGSIYVNYFDYWGQGTLVTVSS
VL: EIVLTQSPATLSLSPGERATLSCSASSSVSYMYWYQQKPGQAPRPLIYRTSNLASGIPARFSGSGSGTDFTLTISSLEPEDFAVYYCQQYHSYPTFGGGTKVEIK
B7: SA302a HC-T30S (antibody, V domains shown)
VH: QVQLQESGPGLVKPSQTLSLTCTVSGYSISSDYNAHWIRQPPGKGLEWIGYIHYSGSTNYNPSLKSRVTISRDTSKNQFSLKLSSVTAADTAVYYCARNYGSIYVNYFDYWGQGTLVTVSS
VL: EIVLTQSPATLSLSPGERATLSCSASSSVSYMYWYQQKPGQAPRPLIYRTSNLASGIPARFSGSGSGTDFTLTISSLEPEDFAVYYCQQYHSYPTFGGGTKVEIK
B8: SA302a HC-T30Y (antibody, V domains shown)
VH: QVQLQESGPGLVKPSQTLSLTCTVSGYSIYSDYNAHWIRQPPGKGLEWIGYIHYSGSTNYNPSLKSRVTISRDTSKNQFSLKLSSVTAADTAVYYCARNYGSIYVNYFDYWGQGTLVTVSS
VL: EIVLTQSPATLSLSPGERATLSCSASSSVSYMYWYQQKPGQAPRPLIYRTSNLASGIPARFSGSGSGTDFTLTISSLEPEDFAVYYCQQYHSYPTFGGGTKVEIK
B9: SA302a HC-T30F (antibody, V domains shown)
VH: QVQLQESGPGLVKPSQTLSLTCTVSGYSIFSDYNAHWIRQPPGKGLEWIGYIHYSGSTNYNPSLKSRVTISRDTSKNQFSLKLSSVTAADTAVYYCARNYGSIYVNYFDYWGQGTLVTVSS
VL: EIVLTQSPATLSLSPGERATLSCSASSSVSYMYWYQQKPGQAPRPLIYRTSNLASGIPARFSGSGSGTDFTLTISSLEPEDFAVYYCQQYHSYPTFGGGTKVEIK
B10: SA302a HC-T30G (antibody, V domains shown)
VH: QVQLQESGPGLVKPSQTLSLTCTVSGYSIGSDYNAHWIRQPPGKGLEWIGYIHYSGSTNYNPSLKSRVTISRDTSKNQFSLKLSSVTAADTAVYYCARNYGSIYVNYFDYWGQGTLVTVSS
VL: EIVLTQSPATLSLSPGERATLSCSASSSVSYMYWYQQKPGQAPRPLIYRTSNLASGIPARFSGSGSGTDFTLTISSLEPEDFAVYYCQQYHSYPTFGGGTKVEIK
B11: SA302a HC-D33Q (antibody, V domains shown)
VH: QVQLQESGPGLVKPSQTLSLTCTVSGYSITSQYNAHWIRQPPGKGLEWIGYIHYSGSTNYNPSLKSRVTISRDTSKNQFSLKLSSVTAADTAVYYCARNYGSIYVNYFDYWGQGTLVTVSS
VL: EIVLTQSPATLSLSPGERATLSCSASSSVSYMYWYQQKPGQAPRPLIYRTSNLASGIPARFSGSGSGTDFTLTISSLEPEDFAVYYCQQYHSYPTFGGGTKVEIK
notes: IgG1 kappa
B12: SA302a HC-H35T (antibody, V domains shown)
VH: QVQLQESGPGLVKPSQTLSLTCTVSGYSITSDYNATWIRQPPGKGLEWIGYIHYSGSTNYNPSLKSRVTISRDTSKNQFSLKLSSVTAADTAVYYCARNYGSIYVNYFDYWGQGTLVTVSS
VL: EIVLTQSPATLSLSPGERATLSCSASSSVSYMYWYQQKPGQAPRPLIYRTSNLASGIPARFSGSGSGTDFTLTISSLEPEDFAVYYCQQYHSYPTFGGGTKVEIK
notes: IgG1 kappa
B13: SA302a HC-H35V (antibody, V domains shown)
VH: QVQLQESGPGLVKPSQTLSLTCTVSGYSITSDYNAVWIRQPPGKGLEWIGYIHYSGSTNYNPSLKSRVTISRDTSKNQFSLKLSSVTAADTAVYYCARNYGSIYVNYFDYWGQGTLVTVSS
VL: EIVLTQSPATLSLSPGERATLSCSASSSVSYMYWYQQKPGQAPRPLIYRTSNLASGIPARFSGSGSGTDFTLTISSLEPEDFAVYYCQQYHSYPTFGGGTKVEIK
notes: IgG1 kappa
B14: SA302a HC-H35K (antibody, V domains shown)
VH: QVQLQESGPGLVKPSQTLSLTCTVSGYSITSDYNAKWIRQPPGKGLEWIGYIHYSGSTNYNPSLKSRVTISRDTSKNQFSLKLSSVTAADTAVYYCARNYGSIYVNYFDYWGQGTLVTVSS
VL: EIVLTQSPATLSLSPGERATLSCSASSSVSYMYWYQQKPGQAPRPLIYRTSNLASGIPARFSGSGSGTDFTLTISSLEPEDFAVYYCQQYHSYPTFGGGTKVEIK
notes: IgG1 kappa
B15: SA302a HC-D33Y (antibody, V domains shown)
VH: QVQLQESGPGLVKPSQTLSLTCTVSGYSITSYYNAHWIRQPPGKGLEWIGYIHYSGSTNYNPSLKSRVTISRDTSKNQFSLKLSSVTAADTAVYYCARNYGSIYVNYFDYWGQGTLVTVSS
VL: EIVLTQSPATLSLSPGERATLSCSASSSVSYMYWYQQKPGQAPRPLIYRTSNLASGIPARFSGSGSGTDFTLTISSLEPEDFAVYYCQQYHSYPTFGGGTKVEIK
notes: IgG1 kappa
B16: SA302a HC-H35A (antibody, V domains shown)
VH: QVQLQESGPGLVKPSQTLSLTCTVSGYSITSDYNAAWIRQPPGKGLEWIGYIHYSGSTNYNPSLKSRVTISRDTSKNQFSLKLSSVTAADTAVYYCARNYGSIYVNYFDYWGQGTLVTVSS
VL: EIVLTQSPATLSLSPGERATLSCSASSSVSYMYWYQQKPGQAPRPLIYRTSNLASGIPARFSGSGSGTDFTLTISSLEPEDFAVYYCQQYHSYPTFGGGTKVEIK
notes: IgG1 kappa
B17: SA302a HC-H35E (antibody, V domains shown)
VH: QVQLQESGPGLVKPSQTLSLTCTVSGYSITSDYNAEWIRQPPGKGLEWIGYIHYSGSTNYNPSLKSRVTISRDTSKNQFSLKLSSVTAADTAVYYCARNYGSIYVNYFDYWGQGTLVTVSS
VL: EIVLTQSPATLSLSPGERATLSCSASSSVSYMYWYQQKPGQAPRPLIYRTSNLASGIPARFSGSGSGTDFTLTISSLEPEDFAVYYCQQYHSYPTFGGGTKVEIK
notes: IgG1 kappa
B18: SA302a HC-D33T (antibody, V domains shown)
VH: QVQLQESGPGLVKPSQTLSLTCTVSGYSITSTYNAHWIRQPPGKGLEWIGYIHYSGSTNYNPSLKSRVTISRDTSKNQFSLKLSSVTAADTAVYYCARNYGSIYVNYFDYWGQGTLVTVSS
VL: EIVLTQSPATLSLSPGERATLSCSASSSVSYMYWYQQKPGQAPRPLIYRTSNLASGIPARFSGSGSGTDFTLTISSLEPEDFAVYYCQQYHSYPTFGGGTKVEIK
notes: IgG1 kappa
B19: SA302a HC-D33G (antibody, V domains shown)
VH: QVQLQESGPGLVKPSQTLSLTCTVSGYSITSGYNAHWIRQPPGKGLEWIGYIHYSGSTNYNPSLKSRVTISRDTSKNQFSLKLSSVTAADTAVYYCARNYGSIYVNYFDYWGQGTLVTVSS
VL: EIVLTQSPATLSLSPGERATLSCSASSSVSYMYWYQQKPGQAPRPLIYRTSNLASGIPARFSGSGSGTDFTLTISSLEPEDFAVYYCQQYHSYPTFGGGTKVEIK
notes: IgG1 kappa
B20: SA302a HC-D33V (antibody, V domains shown)
VH: QVQLQESGPGLVKPSQTLSLTCTVSGYSITSVYNAHWIRQPPGKGLEWIGYIHYSGSTNYNPSLKSRVTISRDTSKNQFSLKLSSVTAADTAVYYCARNYGSIYVNYFDYWGQGTLVTVSS
VL: EIVLTQSPATLSLSPGERATLSCSASSSVSYMYWYQQKPGQAPRPLIYRTSNLASGIPARFSGSGSGTDFTLTISSLEPEDFAVYYCQQYHSYPTFGGGTKVEIK
notes: IgG1 kappa
B21: SA302a HC-H35P (antibody, V domains shown)
VH: QVQLQESGPGLVKPSQTLSLTCTVSGYSITSDYNAPWIRQPPGKGLEWIGYIHYSGSTNYNPSLKSRVTISRDTSKNQFSLKLSSVTAADTAVYYCARNYGSIYVNYFDYWGQGTLVTVSS
VL: EIVLTQSPATLSLSPGERATLSCSASSSVSYMYWYQQKPGQAPRPLIYRTSNLASGIPARFSGSGSGTDFTLTISSLEPEDFAVYYCQQYHSYPTFGGGTKVEIK
notes: IgG1 kappa
B22: SA302a HC-H35M (antibody, V domains shown)
VH: QVQLQESGPGLVKPSQTLSLTCTVSGYSITSDYNAMWIRQPPGKGLEWIGYIHYSGSTNYNPSLKSRVTISRDTSKNQFSLKLSSVTAADTAVYYCARNYGSIYVNYFDYWGQGTLVTVSS
VL: EIVLTQSPATLSLSPGERATLSCSASSSVSYMYWYQQKPGQAPRPLIYRTSNLASGIPARFSGSGSGTDFTLTISSLEPEDFAVYYCQQYHSYPTFGGGTKVEIK
notes: IgG1 kappa

What follows are binders tested against T1, human IL-18BP (assay: BLI, apparent KD).

B1 and B2 are within 1.5-fold of each other in Kd: 1.76 nM for the first, 2.08 nM for the second.

B3 and B4 are within 1.5-fold of each other in Kd: 1.08 nM for the first, 1.5 nM for the second.

B5 and B6 are within 1.5-fold of each other in Kd: 1.28 nM for the first, 1.79 nM for the second.

Compared with B7, B8 is 1.7-fold higher in Kd: 0.66 nM for the first, 1.15 nM for the second.

B9 and B10 are within 1.5-fold of each other in Kd: 1.29 nM for the first, 1.38 nM for the second.

B11 and B12 are within 1.5-fold of each other in Kd: 2.92 nM for the first, 2.23 nM for the second.

First: B13
Second: B14
The Kd of the first is 5.5-fold higher: 2.42 nM for the first, 0.44 nM for the second.

Going from B15 to B16, the Kd rises from 3.79 nM to 6.41 nM (1.7-fold).

Compared with B17, B19 is 2.5-fold higher in Kd: 1.57 nM for the first, 3.95 nM for the second.

Compared with B20, B21 is 6.2-fold lower in Kd: 5.42 nM for the first, 0.88 nM for the second.

In the case of B22, the Kd is reported as 2.18 nM.

In the case of B18, the Kd is reported as 5.17 nM and 8.95 nM.
